Here are results for two molecules from patent US20210302435A1 (SEATTLE CHILDREN S HOSPITAL D B A SEATTLE CHILDREN S …, published 2021).

The target of experiment [1] is T1, IDUA 218 signature peptide (IDUA 218-230).
T1 construct: Endogenous tryptic peptide from digested DBS, PBMC or buccal swab samples; An internal standard version of the same peptide (1.25 fmol) was captured alongside it; also called first IDUA signature peptide
T1 peptide: LGGPGDSFHTPPR
Kind of experiment: immuno-SRM, mAb on Protein G magnetic beads, peptide capture from PBMC digest.

In experiment [2] the target is T2, IDUA 462 signature peptide (IDUA 462-474).
T2 construct: Endogenous tryptic peptide from digested DBS, PBMC or buccal swab samples; An internal standard version of the same peptide (1.25 fmol) was captured alongside it; also called second IDUA signature peptide
T2 peptide: GVPPGPGLVYVTR
The experiment is described as above.

B1: anti-IDUA 218 monoclonal antibody (antibody, V domains shown)
VH: QVQLQQPGTELVKPGASVKLSCKASGYTFTRYWMHWVKQRPGQGLEWIGEINPSNGGTNYNEKFKNKATLNVDKSSSTAYMQLSSLTSEDSAVYYCTLAMDYWGQGTSVTVSS
VL: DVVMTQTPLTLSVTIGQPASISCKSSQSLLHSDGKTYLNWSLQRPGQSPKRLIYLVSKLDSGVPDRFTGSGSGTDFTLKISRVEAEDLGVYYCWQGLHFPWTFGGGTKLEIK
notes: Used as a monoclonal antibody coated on Protein G magnetic beads (1 ug per assay)
Take B1: in experiment [1], the binding result is given as “binds”.

B2: anti-IDUA 462 monoclonal antibody (antibody, V domains shown)
VH: EVQLQQSGAELVKPGASVKLSCTASGFNIKDTYMHWVNQRPEQGLEWIGRIDPANGNTKYGPKFQGKATITADTSSNTAYLQLSSLTSEDTAVYYCAQTARAPFAYWGQGTLVTVSA
VL: DIVITQDEVSNPVTSGESVSISCRSSKSLLYKDGKTYLNWFLQRPGQSPQLLVYWMSTRASGVSDRFSGSGSGTDFTLKISRVKAEDVGMYYCQQVVEYPFTFGTGTKLEIK
notes: Used as a monoclonal antibody coated on Protein G magnetic beads (4 ug per assay)
As for B2, the binding result in experiment [2] is given as “binds”.
